PMC7886694

Columns and labels:
[1] = tested on: His-GlnR (Mycobacterium smegmatis); test: BLI; settings: 37 C, 200 mM KCl, 2 mM Mg2+, BLI: 10 mM HEPES pH 8.0, 2 mM MgCl2, 0.1 mM EDTA, 10 ug/ml BSA, 0.02% Tween-20 (running buffer), EMSA: 2 ng biotin probe in 10 uL, Beyotime …
His-PrpR = test: BLI; settings: 37 C, 200 mM KCl, 2 mM Mg2+, BLI: 10 mM HEPES pH 8.0, 2 mM MgCl2, 0.1 mM EDTA, 10 ug/ml BSA, 0.02% Tween-20 (running buffer), EMSA: 2 ng biotin probe in 10 uL, Beyotime …

Picl (Msm icl promoter) gave a Kd [1] of 33.7 nM and a Kd (His-PrpR) of 171 nM.
